Paper PMC10484793

B1: nuc dsDNA (dsDNA)
DNA 1: TTTATTTCTGAGACGGGGTCTTGTGTTGCCCAGGCTGGAGTGTAATGGCA
DNA 2: TGCCATTACACTCCAGCCTGGGCAACACAAGACCCCGTCTCAGAAATAAA
B2: mito dsDNA (dsDNA)
DNA 1: TACTCCTCAATTACCCACATAGGATGAATAATAGCAGTTCTACCGTACAA
DNA 2: TTGTACGGTAGAACTGCTATTATTCATCCTATGTGGGTAATTGAGGAGTA

Legend:
C17orf80 [1] = target: T1, C17orf80 (Homo sapiens, UniProt Q9BSJ5 1-609); assay: EMSA
C17orf80 [2] = target: T1, C17orf80; assay: EMSA; remark: listed apart in the source

T1 sequence (Q9BSJ5 whole entry): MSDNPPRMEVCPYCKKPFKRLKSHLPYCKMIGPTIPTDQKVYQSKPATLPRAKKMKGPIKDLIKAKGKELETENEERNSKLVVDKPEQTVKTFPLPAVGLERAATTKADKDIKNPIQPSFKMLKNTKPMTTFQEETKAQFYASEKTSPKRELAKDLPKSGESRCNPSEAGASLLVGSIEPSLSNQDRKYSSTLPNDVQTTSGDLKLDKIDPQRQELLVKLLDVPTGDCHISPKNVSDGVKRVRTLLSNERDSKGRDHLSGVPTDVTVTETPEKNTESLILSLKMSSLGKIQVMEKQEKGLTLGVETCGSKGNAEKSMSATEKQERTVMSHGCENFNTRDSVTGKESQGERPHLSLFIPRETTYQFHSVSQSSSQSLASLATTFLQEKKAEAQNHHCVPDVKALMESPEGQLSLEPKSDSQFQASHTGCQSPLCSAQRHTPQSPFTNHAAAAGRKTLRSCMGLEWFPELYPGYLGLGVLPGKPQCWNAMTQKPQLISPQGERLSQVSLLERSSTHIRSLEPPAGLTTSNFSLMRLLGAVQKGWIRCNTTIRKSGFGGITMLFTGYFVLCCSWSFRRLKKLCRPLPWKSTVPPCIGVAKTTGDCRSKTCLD

Binder | Kd (C17orf80 [1]) | binding result (C17orf80 [2])
B1 | 49 ± 3 nM | –
B2 | 46 ± 7 nM | –
TACTCCTCAATTACCCACATAGGATGAATAATAGCAGTTCTACCGTACAA (ssDNA) [mito ssDNA] | – | no binding
